Numbering of substitutions follows the chain as printed. Blank lines part the entries; values can stand above or below the binder they belong to.
How the values were obtained:
[1] = target: T1, human interleukin-2 receptor β-chain (IL-2Rβ; CD122), recombinant protein (human) (UniProt P14784); experiment: ELISA, monovalent VHH-hFc
T1 sequence: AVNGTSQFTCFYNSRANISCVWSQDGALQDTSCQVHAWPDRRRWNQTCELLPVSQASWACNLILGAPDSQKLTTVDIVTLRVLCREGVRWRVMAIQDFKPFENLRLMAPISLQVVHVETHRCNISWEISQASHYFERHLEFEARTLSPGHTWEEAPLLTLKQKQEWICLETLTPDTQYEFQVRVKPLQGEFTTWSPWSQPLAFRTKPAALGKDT

[2] = target: T2, cynomolgus monkey IL-2Rβ/CD122 subunit (cynomolgus monkey) (UniProt Q38J85); experiment: ELISA, monovalent VHH-hFc
T2 sequence (looked up): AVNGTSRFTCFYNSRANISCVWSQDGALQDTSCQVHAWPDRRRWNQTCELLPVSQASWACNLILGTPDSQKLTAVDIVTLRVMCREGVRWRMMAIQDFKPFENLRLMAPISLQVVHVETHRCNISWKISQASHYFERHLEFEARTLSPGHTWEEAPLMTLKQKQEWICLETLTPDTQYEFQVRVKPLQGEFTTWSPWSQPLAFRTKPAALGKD

[3] = target: T2, cynomolgus monkey IL-2Rβ/CD122 subunit (cynomolgus monkey); experiment: ELISA, monovalent; EC50 cyno vs human subunit
[4] = target: T3, mouse IL-2Rβ (mouse) (UniProt P16297); experiment: P.E. binding ELISA
T3 sequence (looked up): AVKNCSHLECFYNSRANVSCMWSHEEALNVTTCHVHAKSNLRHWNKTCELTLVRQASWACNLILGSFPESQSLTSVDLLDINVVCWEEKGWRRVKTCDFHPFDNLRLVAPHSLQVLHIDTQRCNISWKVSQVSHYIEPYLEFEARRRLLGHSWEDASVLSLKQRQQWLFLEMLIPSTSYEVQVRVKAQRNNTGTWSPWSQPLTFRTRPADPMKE

[5] = target: T4, mouse IL-2Rα (mouse) (UniProt P01590); experiment: P.E. binding ELISA
T4 sequence (looked up): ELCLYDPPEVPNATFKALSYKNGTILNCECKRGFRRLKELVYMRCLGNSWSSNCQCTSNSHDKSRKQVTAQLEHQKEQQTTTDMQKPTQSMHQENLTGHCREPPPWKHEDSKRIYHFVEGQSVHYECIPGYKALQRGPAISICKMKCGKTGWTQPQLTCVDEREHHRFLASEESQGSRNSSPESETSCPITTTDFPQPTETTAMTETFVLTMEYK

[6] = target: T5, human common cytokine receptor γ-chain (γc; IL-2Rγ; CD132), recombinant protein (human) (UniProt P31785); experiment: ELISA, monovalent VHH-hFc
T5 sequence: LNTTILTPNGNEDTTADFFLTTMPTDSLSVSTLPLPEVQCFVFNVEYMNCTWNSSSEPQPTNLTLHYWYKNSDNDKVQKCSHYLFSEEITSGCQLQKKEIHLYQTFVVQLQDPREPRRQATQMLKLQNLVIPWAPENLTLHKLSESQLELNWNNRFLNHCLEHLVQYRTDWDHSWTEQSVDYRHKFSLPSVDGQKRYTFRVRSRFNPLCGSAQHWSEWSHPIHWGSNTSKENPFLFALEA

[7] = target: cynomolgus monkey IL-2Rγ/CD132 subunit (cynomolgus monkey); experiment: ELISA, monovalent VHH-hFc
[8] = target: cynomolgus monkey IL-2Rγ/CD132 subunit (cynomolgus monkey); experiment: ELISA, monovalent; EC50 cyno vs human subunit

cynomolgus monkey IL-2Rγ/CD132 subunit (cynomolgus monkey), sequence (chain, as listed by the source): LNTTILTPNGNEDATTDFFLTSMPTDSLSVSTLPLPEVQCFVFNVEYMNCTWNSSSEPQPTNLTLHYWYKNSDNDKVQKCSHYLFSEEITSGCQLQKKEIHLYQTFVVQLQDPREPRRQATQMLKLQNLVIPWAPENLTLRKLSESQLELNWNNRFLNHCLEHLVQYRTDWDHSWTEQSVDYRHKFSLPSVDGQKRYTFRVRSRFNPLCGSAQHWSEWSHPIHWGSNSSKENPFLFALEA

B3: 15-MP02E06 VHH (periplasmic extract) (VHH)
VHH: QVQLVESGGGSVQPGGSLRLSCAASGFTFSNYAMSWVRQAPGKGLEWVASITGFGRGTDYADSVKGRFTISRDNAEDTLYLQMNSLKPEDTAVYYCAKYSSSTYYPPTPARGRDYRGQGTQVTVSS
- OD450 nm [4]: 0.048 OD450 nm

B7: 16-MP02B08 VHH-hFc, monospecific monovalent (Fc fusion, part only; not given: Both Fc arms and linker, not shown: another chain or arm of the molecule; a dimerising Fc or GST; large carriers; small tags and cut ends)
VHH: EVQLVESGGGLVQAGGSLRLSCAASGRAIENYPVGWFRQAPGKEREFVAAITWISGSTLYADSVKGRFTISRDNAKNTVYLQMSSLKPEDTALYYCAAALKTITRGQNDYSYWGQGTQVTVSS
- EC50 [1]: 0.215 nM
- EC50 [2]: 0.28 nM
- Fold change [3]: 1.3 fold

B9: 34-MP04A12 VHH-hFc, monospecific monovalent (Fc fusion, part only; not given: Both Fc arms and linker, not shown: another chain or arm of the molecule; a dimerising Fc or GST; large carriers; small tags and cut ends)
VHH: QVQLVESGGGLVQAGSSLRLSCAASGRTLSRLAMGWFRQAPGKEREFVAVNSWGGDTFYADSVEGRFTYSRDNAKSAVYLQMNSLQPEDTAVYYCAAAPTSFATTAYSSSNSYAYWGQGAQVTVSS
- EC50 [6]: 0.132 nM
- EC50 [7]: 0.158 nM
- Fold change [8]: 1.2 fold

B10: 1-MP01H01 VHH (periplasmic extract) (VHH)
VHH: EVQLVESGGGLVQAGGSLRLSCAASGRTFRTHNMGWFRRAPGKEREFVAAISWNVDNTLYADSVKGRFTISRDNGRNMVYLQMNSLKPEDTAVYYCAADNIPLSSDVAATATEYDYWGQGTQVTVSS
- OD450 nm [5]: 0.048 OD450 nm

B13: 23-MP06F03 VHH-hFc, monospecific monovalent (Fc fusion, part only; not given: Both Fc arms and linker, not shown: another chain or arm of the molecule; a dimerising Fc or GST; large carriers; small tags and cut ends)
VHH: QVQLVESGGGLVQAGGSLRLSCAVSGDVFVRYTMAWFRQAPGKEREFVASVTDSGRTTDYVHSVKGRFTVSRDNAKNTVYLQMNNLKPEDTAVYYCAANTDYFQIKSLDANTWGQGTQVTVSS
- EC50 [1]: 0.174 nM
- EC50 [2]: 0.26 nM
- Fold change [3]: 1.5 fold

B14: 26-MP06A07 VHH-hFc, monospecific monovalent (Fc fusion, part only; not given: Both Fc arms and linker, not shown: another chain or arm of the molecule; a dimerising Fc or GST; large carriers; small tags and cut ends)
VHH: B13 VHH with V5Q, V24A, D59E, H62D, V79A, V93I, K106R, A110L
- EC50 [1]: 0.086 nM
- EC50 [2]: 0.102 nM
- Fold change [3]: 1.2 fold

B15: 22-MP03F12 VHH-hFc, monospecific monovalent (Fc fusion, part only; not given: Both Fc arms and linker, not shown: another chain or arm of the molecule; a dimerising Fc or GST; large carriers; small tags and cut ends)
VHH: EVQLVESGGGLVQAGGSLRLSCAASGSIFSINAMAWFRQVPGMERELVAAISRDGGASVYRDSVKGRFTISRDNSKNTVYLQMNTLKPEDTAIYVCAATRAIGWTARWITTDFDFWGQGTQVTVSS
- EC50 [1]: 0.092 nM
- EC50 [2]: 0.156 nM
- Fold change [3]: 1.7 fold

B16: 22-MP03F12 VHH (periplasmic extract) (VHH)
VHH: B15 VHH
- OD450 nm [4]: 0.048 OD450 nm

B19: 3-MP01E03 VHH (periplasmic extract) (VHH)
VHH: QVQLVESGGGLVQAGGSLRLSCTASGRTLSSYSMAWFRQAADKGREFVTAISSSGVVTHVLDSVKGRFTISRDNAKNTVYLQMNSLQPEDTALYFCAGTASSYSTYEANYNYWGQGTLVTVSS
- OD450 nm [5]: 0.046 OD450 nm

B20: 29-MP04H02 VHH-hFc, monospecific monovalent (Fc fusion, part only; not given: Both Fc arms and linker, not shown: another chain or arm of the molecule; a dimerising Fc or GST; large carriers; small tags and cut ends)
VHH: QVQLVESGGGLVQAGGSLRLACVASGLTFDNYYMGWFRQAPGKEREFVAGIIWNGDHTAYADSIKGRFTISRDNAKNTAYLRMNSLKPEDTAVYYCAATFWIERATTPDIGQYAYWGQGTQVTVSS
- EC50 [6]: 0.683 nM
- EC50 [7]: 0.534 nM
- Fold change [8]: 0.8 fold

B22: 36-MP07F02 VHH-hFc, monospecific monovalent (Fc fusion, part only; not given: Both Fc arms and linker, not shown: another chain or arm of the molecule; a dimerising Fc or GST; small tags and cut ends)
VHH: B9 VHH with S16G, L32Y, K43S, V50A, N51S, Y69F, S76N, V92A, A103P, A120T
- EC50 [6]: 0.145 nM
- EC50 [7]: 0.222 nM

Next, values leading:

- EC50 [1]: 0.206 nM
- EC50 [2]: 0.657 nM
- Fold change [3]: 3.2 fold
B1: 24-MP06E05 VHH-hFc, monospecific monovalent (Fc fusion, part only; not given: Both Fc arms and linker, not shown: another chain or arm of the molecule; a dimerising Fc or GST; large carriers; small tags and cut ends)
VHH: QVQLVESGGELVQGGASLRLSCAASGRTFSNANMAWFRQAPEKEREFVALITWSSGSTLYADSVKGRFTISRDNARKMVYLQMNSLKPEDTAVYYCAADGPPYSGTYYRYDTYDYWGQGTQVTVSS

- OD450 nm [4]: 0.046 OD450 nm
B2: 24-MP06E05 VHH (periplasmic extract) (VHH)
VHH: B1 VHH

- OD450 nm [4]: 0.048 OD450 nm
B4: 18-MP03C03 VHH (periplasmic extract) (VHH)
VHH: QVQLVESGGGLVQPGGSLRLSCAISGGTLDSYGIGWVRQAPGKQREGVSCMSRSDDRTYYADSVKGRFTISKDSAKNTVYLQMTSLKPEDTAVYYCAAVDAYGCSLVQPTTYDFWGLGTQVTVSS

- OD450 nm [5]: 0.046 OD450 nm
B5: 2-MP01A02 VHH (periplasmic extract) (VHH)
VHH: QVQLVESGGGLVQPGGSLRLSCATSGFTFRNNFMSWVRQAPGKGLEWVSTISYGGESTTYAESVKGRFTISRDNAKNTLYLQMNNLKPEDTAVYYCAKATSYDSIRSGSRGQGTQVTVSS

- OD450 nm [5]: 0.045 OD450 nm
B6: 8-MP01C12 VHH (periplasmic extract) (VHH)
VHH: B5 VHH with R30S, W47F, S63A, V93I, D103T, S107G, G108A, S109P

- EC50 [1]: 0.148 nM
- EC50 [2]: 0.495 nM
- Fold change [3]: 3.3 fold
B8: 17-MP02C09 VHH-hFc, monospecific monovalent (Fc fusion, part only; not given: Both Fc arms and linker, not shown: another chain or arm of the molecule; a dimerising Fc or GST; large carriers; small tags and cut ends)
VHH: QVQLQESGGGLVQAGGSLRLSCVASGSVSSINGMAWYRQGADNQRVLVAAISRVGNTAYGDSVKGRFTISRQNARNTVYLQMNSLKPEDTAVYYCNADSWGGDDYWGQGTQVTVSS

- EC50 [1]: 0.67 nM
- EC50 [2]: 0.953 nM
- Fold change [3]: 1.4 fold
B11: 19-MP03F08 VHH-hFc, monospecific monovalent (Fc fusion, part only; not given: Both Fc arms and linker, not shown: another chain or arm of the molecule; a dimerising Fc or GST; large carriers; small tags and cut ends)
VHH: EVQLVESGGGLVQTGGSLRLSCAASGGTFSRDAMAWFRQVPGKEREFVALISWSGATTNYADSVKGRFAISRDNGKNTVYLQMNRLKPADTAIYYCAADRRPMGSRSYFEPTEYDDWGQGTQVTVSS

- OD450 nm [5]: 0.046 OD450 nm
B12: 6-MP01G05 VHH (periplasmic extract) (VHH)
VHH: QVQLQESGGGLVQAGGSLRLSCAASGRTFSSYAMGWFRQAPGKEREFVAVISWNVDNTEYTDSVKGRFTISRDNDKNMVYLQMNSLKPEDTAVYYCAADSIPLSSDMSPTATEYGYWGQGTQVTVSS

- EC50 [6]: 0.155 nM
- EC50 [7]: 0.153 nM
- Fold change [8]: 1 fold
B17: 27-MP04G01 VHH-hFc, monospecific monovalent (Fc fusion, part only; not given: Both Fc arms and linker, not shown: another chain or arm of the molecule; a dimerising Fc or GST; large carriers; small tags and cut ends)
VHH: QVQLVESGGGLVQAGGSLTLSCAAPGRTFGTDVVGWFRQAPGKEREFVASISRSGDGIYYDDSVKGRFTISRNNAWNTVNLQMNSLKVEDTAVYYCAAGDGWSTYDYWGQGTQVTVSS

- EC50 [6]: 0.107 nM
- EC50 [7]: 0.16 nM
- Fold change [8]: 1.5 fold
B18: 38-MP07A11 VHH-hFc, monospecific monovalent (Fc fusion, part only; not given: Both Fc arms and linker, not shown: another chain or arm of the molecule; a dimerising Fc or GST; small tags and cut ends)
VHH: QVQLVESGGGLVQAGGSLRLSCAASGRSLSRDAMGWFRQAPGKEREFVAVMSWGGDTFYTDSVEGRFTFSRDNAKNAVYLEMNDLQPEDTAVYYCAAAPTSFATTAYSSSNSYSYWGRGTQVTVSS

- EC50 [6]: 0.62 nM
- EC50 [7]: 0.723 nM
- Fold change [8]: 1.2 fold
B21: 28-MP04D02 VHH-hFc, monospecific monovalent (Fc fusion, part only; not given: Both Fc arms and linker, not shown: another chain or arm of the molecule; a dimerising Fc or GST; large carriers; small tags and cut ends)
VHH: QVQLVESGGGLVQAGGSLRLSCAASGRTLSRYAMGWFRQAPGKEREFVTANSWGGDTYYADSVQGRFTFSRDNAKNTVYLQMNSLQPEDTAVYYCAAAPTSFATTAYSGSNSYAYWGQGTQVTVSS

- EC50 [6]: 0.081 nM
- EC50 [7]: 0.097 nM
- Fold change [8]: 1.2 fold
B23: 37-MP07F09 VHH-hFc, monospecific monovalent (Fc fusion, part only; not given: Both Fc arms and linker, not shown: another chain or arm of the molecule; a dimerising Fc or GST; small tags and cut ends)
VHH: B21 VHH with F47Y, T49A, A50I, N51D, Y58F, Q64E, T77E, A97G, G109S, A114R

- OD450 nm [5]: 0.046 OD450 nm
B24: 5-MP01F05 VHH (periplasmic extract) (VHH)
VHH: EVQLVESGGGLVQAGGSLRLSCAASIRAFTTWSMAWFRQAPGKEREYVARINVSGSVTYYADFVKGRFTISRDNAKKTMYLEMNNLKPEDTALYYCAADRTGVGTNDYNYWGQGTQVTVSS

— patent publication US20240409645A1
